Reference: paper PMC3948627

Target: Aha1 I64X (pAzpa at position 64) with C-terminal V5/His6-tag (S. cerevisiae) (UniProt Q12449)
Test: cross-linking; in vivo photo-cross-linking (pAzpa, UV 365 nm), crosslink product immunoprecipitated by anti-V5, separated by 6% SDS-PAGE, band digested and identified by MALDI-TOF/MS

stoichiometry N: 2
Substance: Aha1 I64X (pAzpa at position 64) with C-terminal V5/His6-tag (from UniProt Q12449 1-350)
